Data reported in patent US20230227539A1 (HIFIBIO HK, published 2023).
Substitutions are numbered along the chain they refer to.

B1: Ab-4 (IgG1) (antibody, V domains shown)
VH: QITLKESGPTLVKPTQTLTLTCTFSGFSLSTSGVGVGWIRQPPGKALEWLALIYWDDDKRYSPSLKSRLTITKDTSKNQVVLTMTNMAPVDTATYYCAHRLSNFWSGYYTGWGQGTLVTVSS
VL: not shown
B2: Ab-2 IgG1 (antibody, V domains shown)
VH: EVQLVESGGGLIQPGGSLRLSCAASGFIVSSNYMSWVRQAPGKGLEWVSIIYSGGSTFYADSVKGRFTISRDNSKNTLYLQMNSLRVEDTAVYYCARDLQELGSLDYWGQGTLVTVSS
VL: DIQMTQSPSSVSASVGDRVTITCRASQGISSWLAWYQQKPGKAPKLLIYAASSLQSGVPSRFSGSGSGTDFTLTISSLQPEDFATYYCQEANSFPYTFGQGTKLEIKR
notes: also called 2A2A; C1S5-2A2A
B3: Ab-3 (IgG1) (antibody, V domains shown)
VH: QLQLQESGPGLVKPSETLSLTCTVSGGSISSTIYYWGWIRQPPGKGLEWIGSIYYSGNAYYNPSLKSRVTISVDTSKNQFSLMLNSVTASDTAVYYCATPHTRWGPDYWGQGTLVTVSS
VL: NFMLTQPHSVSASPGKTVTVSCTRSSGSIASNYVLWYQQRPGSAPTTVIYEDDQRPSGVPDRFSASIDSSSNSASLTISGLKTEDEADYYCQSYDGDNLVFGGGTKLTVLG
B4: Ab-1 (IgG1) (antibody, V domains shown)
VH: B3 VH with T32S, M83K, S90A
VL: B3 VL
B5: Ab-8 (antibody, V domains shown)
VH: B2 VH with S25P
VL: B2 VL
B6: Ab-9 (antibody, V domains shown)
VH: B2 VH with Y107C
VL: B2 VL
B7: Ab-6 (antibody, V domains shown)
VH: QVQLVQSGAEVKKPGASVKVSCKVSGYTLTELSMHWVRQAPGKGLEWMGGFDPEDGETIYAQKFQGRVTMTEDTSTDTAYMELSSLRSEDTAVYYCATGHQLLFYNWFDPWGQGTLVTVSS
VL: QSALTQPPSASGSPGQSVTISCTGTSSDVGGYNYVSWYQQHPGKAPKLMIYEVSKRPSGVPDRFSGSKSGNTASLTVSGLQAEDEADYYCSSYAGSNNLVFGGGTKLTVLG
B8: Ab-7 (antibody, V domains shown)
VH: EVQLVESGGGLVKPGGSLRLSCAASGFAFSSYTMNWVRQAPGKGLAWVSSISSSSDYIFYADSVKGRCTISRDNAKNSLSLQMNSLRAEDTAVYYCARGSNTAWGGVPDAFDFWGLGTVVTVSS
VL: B7 VL with G31R, A82T

target: T1, SARS-CoV-2 S1 protein (S1 fragment of the S protein) (SARS-CoV-2, UniProt P0DTC2 16-685); assay: SPR negative control; as indicated by the domain ELISA
T1 construct: domain: S1

Row | Binder | binding result
1 | B1 | no binding

target: T2, SARS-CoV-2 Spike S1+S2 ECD, his Tag protein (SARS-CoV-2, UniProt P0DTC2 14-1213); assay: ELISA on His-tagged S1+S2 ECD (FIG. 7)
T2 construct: extracellular domain

Row | Binder | EC50 [nM]
2 | B2 | 0.021

target: SARS-CoV-2 Spike S1, mFc tag spike protein (SARS-CoV-2, UniProt P0DTC2 16-685); assay: not given

Row | Binder | IC50 [nM]
3 | B1 | > 300
4 | B3 | 10.6
5 | B4 | 11.1
6 | B2 | 3.78

target: T2, SARS-CoV-2 Spike S1+S2 ECD, his Tag …; assay: binding to full-length S protein

Row | Binder | EC50 [nM]
7 | B2 | 0.55

target: T3, SARS-CoV-2 S protein on pseudotyped virus (wild type) (SARS-CoV-2, UniProt P0DTC2 14-1273); assay: cell-based or functional assay

Row | Binder | Pseudo-virus neutralization (Test 1) IC80 [nM] | Pseudo-virus neutralization (Test 2) IC50 [nM] | Pseudo-virus neutralization (Test 2) IC80 [nM]
8 | B3 | 23.2 | 2.61 | 10.4
9 | B4 | 16.3 | 1.62 | 6.48
10 | B2 | 2.11 | 0.32 | 1.29

target: T3, SARS-CoV-2 S protein on pseudotyped …; assay: cell-based or functional assay; remark: another data set of the same source

Row | Binder | Pseudo-virus neutralization IC50 [nM] | Pseudo-virus neutralization IC90 [nM]
11 | B1 | > 300 | > 300
12 | B3 | 5.8 | 52.2
13 | B4 | 4.07 | 36.6
14 | B2 | 0.53 | 4.76

target: T2, SARS-CoV-2 Spike S1+S2 ECD, his Tag …; assay: ELISA (FIG. 6)

Row | Binder | binding result
15 | B5 | binds
16 | B6 | binds
17 | B7 | binds
18 | B8 | binds

target: T2, SARS-CoV-2 Spike S1+S2 ECD, his Tag …; assay: ELISA, coated S1+S2 ECD His

Row | Binder | EC50 [nM] | EC90 [nM]
19 | B1 | 14.2 | 328
20 | B3 | 0.5 | 9.36
21 | B4 | 0.53 | 6.03
22 | B2 | 0.5 | 2.56
